Reference: IntAct's records for PubMed 26894577

Target: 2aba_human PPP2R2A (UniProt P63151)
Chain of UniProt P63151 (P63151 whole entry): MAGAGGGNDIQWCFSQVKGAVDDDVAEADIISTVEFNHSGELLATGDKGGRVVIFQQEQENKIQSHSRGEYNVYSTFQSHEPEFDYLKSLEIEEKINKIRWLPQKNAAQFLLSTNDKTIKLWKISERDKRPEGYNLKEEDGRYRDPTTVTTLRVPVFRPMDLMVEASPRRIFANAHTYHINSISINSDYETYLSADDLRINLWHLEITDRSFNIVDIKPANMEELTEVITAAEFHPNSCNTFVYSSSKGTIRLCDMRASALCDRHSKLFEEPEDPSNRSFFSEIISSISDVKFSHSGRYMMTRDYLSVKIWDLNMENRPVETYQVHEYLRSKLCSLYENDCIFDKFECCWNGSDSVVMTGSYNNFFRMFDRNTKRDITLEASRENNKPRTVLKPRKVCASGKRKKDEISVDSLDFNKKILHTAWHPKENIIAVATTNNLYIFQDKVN

- effect of a mutation on the interaction: with no effect
Substance: Leucine-rich repeat serine/threonine-protein kinase 2 (Homo sapiens), Q5S007 R1441C
